Experimental data taken from patent US20100221257A1.

Target: Antibody 6 (Eu3+ cryptate labelled, Example 5)
Test: HTRF competition: unlabelled test protein (maximum 100 nM) against biotin labelled human IL-1R1/Fc binding to cryptate labelled antibody

Sequence of Antibody 6 (Eu3+ cryptate labelled, Example 5) (VH, as listed by the source, chain 1 of 2): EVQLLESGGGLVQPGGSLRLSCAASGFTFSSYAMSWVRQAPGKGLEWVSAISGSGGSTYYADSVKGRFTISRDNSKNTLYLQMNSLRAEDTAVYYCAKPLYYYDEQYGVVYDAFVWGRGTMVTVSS
Sequence of Antibody 6 (Eu3+ cryptate labelled, Example 5) (VL, as listed by the source, chain 2 of 2): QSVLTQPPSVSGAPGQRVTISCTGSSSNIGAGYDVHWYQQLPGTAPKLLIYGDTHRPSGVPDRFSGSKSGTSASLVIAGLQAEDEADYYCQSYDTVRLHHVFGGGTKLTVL

- percentage inhibition at the highest concentration of chimera: 66%
B1: MoIL-1R1 (mouse IL-1R1 extracellular domain Fc fusion) (Fc fusion, UniProt P13504 20-338, looked up, not shown: a dimerising Fc or GST)
chain: LEIDVCTEYPNQIVLFLSVNEIDIRKCPLTPNKMHGDTIIWYKNDSKTPISADRDSRIHQQNEHLWFVPAKVEDSGYYYCIVRNSTYCLKTKVTVTVLENDPGLCYSTQATFPQRLHIAGDGSLVCPYVSYFKDENNELPEVQWYKNCKPLLLDNVSFFGVKDKLLVRNVAEEHRGDYICRMSYTFRGKQYPVTRVIQFITIDENKRDRPVILSPRNETIEADPGSMIQLICNVTGQFSDLVYWKWNGSEIEWNDPFLAEDYQFVEHPSTKRKYTLITTLNISEVKSQFYRYPFICVVKNTNIFESAHVQLIYPVPDFK
